Patent publication US20250295799A1 (Zymeworks, published 2025)
Positions count from the first letter of the chain named.

Experiments:
human GPC3 on cells [1] = target: T1, human GPC3 on cells (human, UniProt P51654 25-554); experiment: flow cytometry, HepG2 cells; apparent Kd
T1 construct: GPI-anchored protein on transfected CHO-S cells, on human tumor cell lines or on HEK293T cells; the cell is named under assay; also called human GPC3 on CHO-S transfected cells; HuGPC3-CHO
Method: (§1) Briefly, cells were seeded at 50,000 cells/well in V-bottom 96-well plates and treated with antibody for 24 hours at 4° C. to prevent internalization. […] Following incubation and washing, fluorescence was detected by flow cytometry on a BD LSRFortessa™ Cell Analyzer (BD Biosciences, Franklin Lake, NJ) with 1,000 minimum events collected per well. AF647/APC-A GeoMean (fluorescence signal geometric mean, proportional to anti-Human AF647 binding) in live cell population was plotted against antibody concentration using GraphPad Prism Version 9 (GraphPad Software, San Diego, CA). The Bmax, Curve Hill Slope (h) and Kd values were derived from the “Specific binding with Hill slope” nonlinear regression curve fit in GraphPad Prism Version 9.

human GPC3 on cells [2] = target: T1, human GPC3 on cells; experiment: flow cytometry, CHO-S cells transfected with human GPC3; apparent Kd
Method: (§2) Briefly, CHO—S cells were transiently transfected for −24 hours with a pTT5-based expression plasmid encoding human GPC3 or cynomolgus monkey GPC3, 0.5 μg DNA per 1 million cells, using the Neon™ Transfection System (Thermo Fisher Scientific Corp., Waltham, MA), to transiently express human or cynomolgus monkey GPC3. Following transfection, cells were seeded at 50,000 cells/well in V-bottom 96-well plates and treated with antibody for 24 hours at 4° C. to prevent internalization. […] Following incubation and washing, fluorescence was detected by flow cytometry on a BD LSRFortessa™ Cell Analyzer (BD Biosciences, Franklin Lake, NJ) with 1,000 minimum events collected per well. AF647/APC-A GeoMean (fluorescence signal geometric mean, proportional to anti-Human AF647 binding) in live cell population was plotted against antibody concentration using GraphPad Prism Version 9 (GraphPad Software, San Diego, CA). The Bmax and Kd values were derived from the “Specific binding with Hill slope” nonlinear regression curve fit in GraphPad Prism Version 9.

human GPC3 on cells [3] = target: T1, human GPC3 on cells; experiment: flow cytometry on HepG2 cells (GPC3-high), 24 h at 4 C, anti-human IgG Fc AF647
Method: as §1

human GPC3 on cells [4] = target: T1, human GPC3 on cells; experiment: flow cytometry on JHH-7 cells (GPC3-high), 24 h at 4 C, anti-human IgG Fc AF647
Method: as §1

human GPC3 on cells [5] = target: T1, human GPC3 on cells; experiment: flow cytometry, JHH-7 cells
Method: as §1

[6] = target: KLH (Sigma-Aldrich, H8283); experiment: NS-ELISA, plate coated with KLH, antibody at 100 nM
Method: 50 μL each of insulin, KLH, dsDNA and ssDNA were added to a 96 well plate, followed by the incubation at 37° C. for 2 h. The coating materials were removed, and the plate was blocked with 200 μL of Gibco™ PBS pH7.4, 0.1% Tween®20, and incubated for 1 h at room temperature with shaking at 200 rpm. The plate was washed 3 times with Gibco™ PBS pH7.4, 0.1% Tween 20. 50 μL of each mAb at 100 nM (15 mg/mL) in Gibco™ PBS pH 7.4, 0.1% Tween®20 was added in duplicate to the wells and incubated for 1 h at room temperature with shaking at 200 rpm. Plates were washed three times with Gibco™ PBS pH7.4, 0.1% Tween 20, and 50 μL of 50 ng/mL anti-human IgG HRP (Thermofisher Scientific©, H₁₀₃₀₇) was added to each well. Plates were incubated for 1 h at room temperature, with shaking at 200 rpm. The plate was washed three times with Gibco™ PBS pH7.4, 0.1% Tween 20, and 100 μL of TMB substrate (Cell Signaling Technology©, 7004P6) added to each well. […] Binding scores were calculated as the ratio of the ELISA signal of the antibody to the signal of a well containing buffer instead of the primary antibody. The cutoffs considered for each binding molecule (ssDNA. KLH, Insulin, dsDNA and Heparin) were internally calculated.

[7] = target: T2, recombinant cynomolgus GPC3 (ACROBiosystems) (cynomolgus monkey, UniProt A5A6P7 25-559 (Pan troglodytes entry), limits assumed); experiment: SPR, antibody captured on anti-Fc, GPC3 injected, 1:1 fit
T2 construct: bought antigen of the SPR assays; also called cynoGPC3
Method: (§3) Antigens: recombinant human and cynomolgus GPC3 was purchased from ACROBiosystems (Newark, DE) and SEC purified on a Superdex 200 10/300 GL column (Cytiva) in PBST running buffer at 0.8 mL/min.
(§4) Screening of the antibodies for binding to GPC3 antigen was conducted via anti-Fc capture of antibodies, followed by the injection of five concentrations of GPC3. The anti-Fc surface was prepared on a CM5 Series S sensor chip by standard amine coupling methods as described by the manufacturer (Cytiva Life Sciences, Mississauga, ON, Canada). […] Approximately 500-600 RUs of each antibody (1-3 μg/mL) were captured on the goat anti-human IgG surface by injecting at 10 μL/min for 60s. Using single-cycle kinetics, five concentrations of a two-fold dilution series of human or cynomolgus GPC3 starting at 40 nM (or 20 nM) with a blank buffer control were injected at 40 μL/min for 180s of contact time, followed by 180 s (or 300 s) dissociation phase, resulting in sensorgrams with a buffer blank reference. The anti-Fc surface was regenerated to prepare for the next injection cycle by one pulse of 10 mM glycine/HCl pH 1.5 for 180 s at 40 μL/min. Blank-subtracted sensorgrams were analyzed using Biacore™ T200 Evaluation Software v3.0. The blank-subtracted sensorgrams were then fit to the 1:1 Langmuir binding model.

[8] = target: T3, recombinant human GPC3 (ACROBiosystems) (human, UniProt P51654 25-559); experiment: as above
T3 construct: bought antigen of the SPR assays, SEC purified; also called huGPC3; hGPC3
Method: as §3, §4

[9] = target: T4, cynomolgus monkey GPC3 on CHO-S transfected cells (cynomolgus monkey, UniProt A5A6P7 25-554 (Pan troglodytes entry)); experiment: flow cytometry, CHO-S cells transfected with cynomolgus monkey GPC3; apparent Kd
T4 construct: transient expression from a pTT5-based plasmid; also called CHO-S Cyno GPC3; CynoGPC3-CHO
Method: as §2

human GPC3 on cells [10] = target: T1, human GPC3 on cells; experiment: flow cytometry, JHH-7 cells; apparent Kd
Method: as §1

human GPC3 on cells [11] = target: T1, human GPC3 on cells; experiment: cell-based or functional assay
[12] = target: T3, recombinant human GPC3 (ACROBiosystems); experiment: SPR
[13] = target: T3, recombinant human GPC3 (ACROBiosystems); experiment: SPR; Kd on huGPC3 over Kd on cynoGPC3
Method: as §3, §4

human GPC3 on cells [14] = target: T1, human GPC3 on cells; experiment: flow cytometry, HepG2 cells
Method: as §1

human GPC3 on cells [15] = target: T1, human GPC3 on cells; experiment: flow cytometry, JHH-5 cells
human GPC3 on cells [16] = target: T1, human GPC3 on cells; experiment: flow cytometry, JHH-7 cells; remark: listed apart in the source

B1: v37575 (codrituzumab) (antibody, human IgG1, kappa, V domains shown)
VH: QVQLVQSGAEVKKPGASVKVSCKASGYTFTDYEMHWVRQAPGQGLEWMGALDPKTGDTAYSQKFKGRVTLTADKSTSTAYMELSSLTSEDTAVYYCTRFYSYTYWGQGTLVTVSS
VL: DVVMTQSPLSLPVTPGEPASISCRSSQSLVHSNRNTYLHWYLQKPGQSPQLLIYKVSNRFSGVPDRFSGSGSGTDFTLKISRVEAEDVGVYYCSQNTHVPPTFGQGTKLEIKR
notes: also called GC33; RG-7686
Human GPC3 on cells [1]
  Kd: 1.2 nM
Human GPC3 on cells [2]
  Kd: 1.23 nM
Human GPC3 on cells [3]
  EC50 (read off the curve): ~1 nM
Human GPC3 on cells [4]
  EC50 (read off the curve): ~0.3 nM
Human GPC3 on cells [5]
  Bmax: 9000
[6]
  NS-ELISA binding score: 1.11 ratio to buffer well
[7]
  Kd: 0.91 nM
[8]
  Kd: 0.91 nM
[9]
  Kd: 0.98 nM
Human GPC3 on cells [10]
  Kd: 0.26 nM
Human GPC3 on cells [11]
  internalized fluorescence, fold increase over palivizumab, Hep G2, 5 hours, 10 nM: 14.4 fold
  internalized fluorescence, fold increase over palivizumab, Hep G2, 24 hours, 10 nM: 57.2 fold
  internalized fluorescence, fold increase over palivizumab, JHH-7, 5 hours, 10 nM: 8.5 fold
  internalized fluorescence, fold increase over palivizumab, JHH-7, 24 hours, 10 nM: 46.7 fold
[12]
  fold higher affinity than M3-H18L6: ~10 fold
[13]
  Fold difference (hu/cyno): 1 fold
Human GPC3 on cells [14]
  Bmax: 42300

B2: v40213 (H18L6_LC_N33E mAb) (antibody, human IgG1, kappa, V domains shown)
VH: QVQLVQSGAEVKKPGSSVKVSCKASGYTFTDYEMHWVKQAPGHGLEWIGAIDPETGDTAYNQKFKGKATLTADTSTSTAYMELSSLRSEDTAVYYCTRYFSFAYWGQGTLVTVSS
VL: EIVLTQSPATLSLSPGERATISCRSSQSLRHSEGNTYLQWYQQKPGQAPRLLIYKVSNRFSGVPARFSGSGSGTDFTLTISSLEPEDFAVYFCYQSKHVPYTFGGGTKVEIKR
notes: as for v40203
Human GPC3 on cells [15]
  fold increase in Kd from wild-type: ~29 fold

B3: v40215 (H18L6_LC_N33V mAb) (antibody, human IgG1, kappa, V domains shown)
VH: B2 VH
VL: B2 VL with E33V
notes: as for v40203
Human GPC3 on cells [16]
  fold increase in Kd from wild-type: > 2 fold
